{
  "source": "patent US20130280259A1",
  "about": "“USE OF ANTIBODIES AGAINST NK1, NK2 AND/OR NK3 RECEPTORS IN CANCER TREATMENT” (SERVICIO ANDALUZ DE SALUD, priority 2010, published 2013)",
  "key": {"[1]": {"test_system": "human breast cancer cells", "conditions": "Singh D et al., 2000; Bigioni M. et al., 2005; cited from earlier work"}, "[2]": {"target": "NK1 receptor (human) (UniProt P25103)", "sequence (P25103 whole entry)": "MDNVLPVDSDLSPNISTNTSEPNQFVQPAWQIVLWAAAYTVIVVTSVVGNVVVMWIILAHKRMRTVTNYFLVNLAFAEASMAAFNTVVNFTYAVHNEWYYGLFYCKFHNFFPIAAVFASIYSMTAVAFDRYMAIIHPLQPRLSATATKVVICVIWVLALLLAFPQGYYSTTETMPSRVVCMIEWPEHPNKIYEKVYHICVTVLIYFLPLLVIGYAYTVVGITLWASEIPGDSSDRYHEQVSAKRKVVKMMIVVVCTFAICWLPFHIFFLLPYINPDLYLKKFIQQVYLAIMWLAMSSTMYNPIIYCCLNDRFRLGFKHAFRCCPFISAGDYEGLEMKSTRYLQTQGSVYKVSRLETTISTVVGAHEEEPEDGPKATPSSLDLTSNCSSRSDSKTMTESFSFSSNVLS", "assay": "cell-based or functional assay"}, "[3]": {"target": "NK2 receptor (human) (UniProt P21452)", "sequence (P21452 whole entry)": "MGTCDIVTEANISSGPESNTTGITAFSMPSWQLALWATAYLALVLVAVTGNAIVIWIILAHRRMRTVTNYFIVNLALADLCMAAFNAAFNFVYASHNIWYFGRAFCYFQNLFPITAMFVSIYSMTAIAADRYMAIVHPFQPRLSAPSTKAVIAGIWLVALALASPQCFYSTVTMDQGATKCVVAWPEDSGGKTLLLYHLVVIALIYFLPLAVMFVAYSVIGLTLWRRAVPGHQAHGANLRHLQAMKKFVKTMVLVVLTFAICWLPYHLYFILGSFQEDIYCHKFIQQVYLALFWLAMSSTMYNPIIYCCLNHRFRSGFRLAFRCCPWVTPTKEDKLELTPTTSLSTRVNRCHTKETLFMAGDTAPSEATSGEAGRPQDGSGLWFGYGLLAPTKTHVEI", "assay": "cell-based or functional assay"}, "[4]": {"target": "NK3 receptor (human) (UniProt P29371)", "sequence (P29371 whole entry)": "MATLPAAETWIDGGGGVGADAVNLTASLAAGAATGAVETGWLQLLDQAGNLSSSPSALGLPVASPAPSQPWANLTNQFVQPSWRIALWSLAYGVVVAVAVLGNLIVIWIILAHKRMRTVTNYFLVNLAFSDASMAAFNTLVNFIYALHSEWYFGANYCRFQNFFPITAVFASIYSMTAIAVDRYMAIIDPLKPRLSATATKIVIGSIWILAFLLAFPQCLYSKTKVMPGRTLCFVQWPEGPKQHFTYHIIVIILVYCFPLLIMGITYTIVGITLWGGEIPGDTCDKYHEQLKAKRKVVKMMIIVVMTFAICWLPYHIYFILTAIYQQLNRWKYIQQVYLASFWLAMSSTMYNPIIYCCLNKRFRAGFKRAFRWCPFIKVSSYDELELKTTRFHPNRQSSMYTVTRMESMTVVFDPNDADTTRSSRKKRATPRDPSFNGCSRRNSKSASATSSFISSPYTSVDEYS", "assay": "cell-based or functional assay"}, "[5]": {"target": "NK1, NK2 and NK3 receptors", "assay": "cell-based or functional assay"}},
  "note": "Positions of bridges follow the written chain, without caps; N, C: chain ends. Non-standard residues stand in square brackets, D forms with d. Residues, ends and D or L forms follow the SMILES beside them. *: point of attachment. NH(β-GlcNAc) = CC(=O)N[C@@H]1[C@@H](O)[C@H](O)[C@@H](CO)O[C@H]1N*; Dap = NC[C@H](N)C(=O)O",
  "data": [
    {"molecule": "CC(=O)N[C@@H]1[C@@H](O)[C@H](O)[C@@H](CO)O[C@H]1NC(=O)C[C@@H]1NC(=O)[C@H](CC(C)C)NC(=O)[C@@H]2CNC(=O)C[C@H](NC1=O)C(=O)N[C@@H](Cc1c[nH]c3ccccc13)C(=O)N[C@@H](Cc1ccccc1)C(=O)N2", "note": "[MEN 11420, nepadutant] (cyclo(D(NH(β-GlcNAc))DWF[Dap]L); lactam 2-5)", "values": [
      {"measurement": "Blocking cell proliferation", "setting": "[1]", "value": "efficacy in blocking cell proliferation"}
    ]},
    {"molecule": "Cc1ccc(CC(=O)N(C)[C@H](Cc2ccc3ccccc3c2)C(=O)N[C@@H]2CCCC[C@@H]2NC(=O)c2c[nH]c3ccccc23)cc1", "note": "[MEN 11467]", "values": [
      {"measurement": "Blocking cell proliferation", "setting": "[1]", "value": "efficacy in blocking cell proliferation"}
    ]},
    {"molecule": "CC(=O)NC1(c2ccccc2)CCN(CC[C@H](CN(C)C(=O)c2ccccc2)c2ccc(Cl)c(Cl)c2)CC1", "note": "[SR 48968]", "values": [
      {"measurement": "Blocking cell proliferation", "setting": "[1]", "value": "efficacy in blocking cell proliferation"}
    ]},
    {"molecule": "anti-NK1 antibody (Sigma-Aldrich, product number S8305)", "values": [
      {"measurement": "% of fibroblast cells with expression for MMP-3; anti-NK1 (1/100) and Substance P (1 µM)", "setting": "[2]", "value": 0, "unit": "%"},
      {"measurement": "% of fibroblast cells with expression for MMP-7; anti-NK1 (1/100) and Substance P (1 µM)", "setting": "[2]", "value": 0, "unit": "%"},
      {"measurement": "% of fibroblast cells with expression for MMP-9; anti-NK1 (1/100) and Substance P (1 µM)", "setting": "[2]", "value": 0, "unit": "%"},
      {"measurement": "% of fibroblast cells with expression for MMP-11; anti-NK1 (1/100) and Substance P (1 µM)", "setting": "[2]", "value": 0, "unit": "%"},
      {"measurement": "% of fibroblast cells with expression for MMP-13; anti-NK1 (1/100) and Substance P (1 µM)", "setting": "[2]", "value": 0, "unit": "%"},
      {"measurement": "% of fibroblast cells with expression for MMP-14; anti-NK1 (1/100) and Substance P (1 µM)", "setting": "[2]", "value": 0, "unit": "%"},
      {"measurement": "% of fibroblast cells with expression for SPARC; anti-NK1 (1/100) and Substance P (1 µM)", "setting": "[2]", "value": 0, "unit": "%"},
      {"measurement": "% of fibroblast cells with expression for TGF-alpha; anti-NK1 (1/100) and Substance P (1 µM)", "setting": "[2]", "value": 0, "unit": "%"},
      {"measurement": "% of fibroblast cells with expression for TGF-beta 1; anti-NK1 (1/100) and Substance P (1 µM)", "setting": "[2]", "value": 0, "unit": "%"},
      {"measurement": "% of fibroblast cells with expression for TGF-beta 2; anti-NK1 (1/100) and Substance P (1 µM)", "setting": "[2]", "value": 0, "unit": "%"},
      {"measurement": "% of fibroblast cells with expression for TGF-beta 3; anti-NK1 (1/100) and Substance P (1 µM)", "setting": "[2]", "value": 0, "unit": "%"},
      {"measurement": "% of mononuclear cells with expression for NF-kB; anti-NK1 (1/100) and Substance P (1 µM)", "setting": "[2]", "value": 0, "unit": "%"},
      {"measurement": "% of mononuclear cells with expression for TGF-beta; anti-NK1 (1/100) and Substance P (1 µM)", "setting": "[2]", "value": 0, "unit": "%"},
      {"measurement": "% of polymorphonuclear cells with expression for NF-kB; anti-NK1 (1/100)", "setting": "[2]", "value": 0, "unit": "%"},
      {"measurement": "% of polymorphonuclear cells with expression for TGF-beta; anti-NK1 (1/100)", "setting": "[2]", "value": 0, "unit": "%"}
    ]},
    {"molecule": "anti-NK2 antibody (Sigma-Aldrich, product number HPA012084)", "values": [
      {"measurement": "% of fibroblast cells with expression for MMP-3; anti-NK2 (1/100) and Substance P (1 µM)", "setting": "[3]", "value": 0, "unit": "%"},
      {"measurement": "% of fibroblast cells with expression for MMP-7; anti-NK2 (1/100) and Substance P (1 µM)", "setting": "[3]", "value": 0, "unit": "%"},
      {"measurement": "% of fibroblast cells with expression for MMP-9; anti-NK2 (1/100) and Substance P (1 µM)", "setting": "[3]", "value": 0, "unit": "%"},
      {"measurement": "% of fibroblast cells with expression for MMP-11; anti-NK2 (1/100) and Substance P (1 µM)", "setting": "[3]", "value": 0, "unit": "%"},
      {"measurement": "% of fibroblast cells with expression for MMP-13; anti-NK2 (1/100) and Substance P (1 µM)", "setting": "[3]", "value": 0, "unit": "%"},
      {"measurement": "% of fibroblast cells with expression for MMP-14; anti-NK2 (1/100) and Substance P (1 µM)", "setting": "[3]", "value": 0, "unit": "%"},
      {"measurement": "% of fibroblast cells with expression for SPARC; anti-NK2 (1/100) and Substance P (1 µM)", "setting": "[3]", "value": 0, "unit": "%"},
      {"measurement": "% of fibroblast cells with expression for TGF-alpha; anti-NK2 (1/100) and Substance P (1 µM)", "setting": "[3]", "value": 0, "unit": "%"},
      {"measurement": "% of fibroblast cells with expression for TGF-beta 1; anti-NK2 (1/100) and Substance P (1 µM)", "setting": "[3]", "value": 0, "unit": "%"},
      {"measurement": "% of fibroblast cells with expression for TGF-beta 2; anti-NK2 (1/100) and Substance P (1 µM)", "setting": "[3]", "value": 0, "unit": "%"},
      {"measurement": "% of fibroblast cells with expression for TGF-beta 3; anti-NK2 (1/100) and Substance P (1 µM)", "setting": "[3]", "value": 0, "unit": "%"},
      {"measurement": "% of mononuclear cells with expression for NF-kB; anti-NK2 (1/100) and Substance P (1 µM)", "setting": "[3]", "value": 0, "unit": "%"},
      {"measurement": "% of mononuclear cells with expression for TGF-beta; anti-NK2 (1/100) and Substance P (1 µM)", "setting": "[3]", "value": 0, "unit": "%"},
      {"measurement": "% of polymorphonuclear cells with expression for NF-kB; anti-NK2 (1/100)", "setting": "[3]", "value": 0, "unit": "%"},
      {"measurement": "% of polymorphonuclear cells with expression for TGF-beta; anti-NK2 (1/100)", "setting": "[3]", "value": 0, "unit": "%"}
    ]},
    {"molecule": "anti-NK3 antibody (Sigma-Aldrich, product number HPA009418)", "values": [
      {"measurement": "% of fibroblast cells with expression for MMP-3; anti-NK3 (1/100) and Substance P (1 µM)", "setting": "[4]", "value": 0, "unit": "%"},
      {"measurement": "% of fibroblast cells with expression for MMP-7; anti-NK3 (1/100) and Substance P (1 µM)", "setting": "[4]", "value": 0, "unit": "%"},
      {"measurement": "% of fibroblast cells with expression for MMP-9; anti-NK3 (1/100) and Substance P (1 µM)", "setting": "[4]", "value": 0, "unit": "%"},
      {"measurement": "% of fibroblast cells with expression for MMP-11; anti-NK3 (1/100) and Substance P (1 µM)", "setting": "[4]", "value": 0, "unit": "%"},
      {"measurement": "% of fibroblast cells with expression for MMP-13; anti-NK3 (1/100) and Substance P (1 µM)", "setting": "[4]", "value": 0, "unit": "%"},
      {"measurement": "% of fibroblast cells with expression for MMP-14; anti-NK3 (1/100) and Substance P (1 µM)", "setting": "[4]", "value": 0, "unit": "%"},
      {"measurement": "% of fibroblast cells with expression for SPARC; anti-NK3 (1/100) and Substance P (1 µM)", "setting": "[4]", "value": 0, "unit": "%"},
      {"measurement": "% of fibroblast cells with expression for TGF-alpha; anti-NK3 (1/100) and Substance P (1 µM)", "setting": "[4]", "value": 0, "unit": "%"},
      {"measurement": "% of fibroblast cells with expression for TGF-beta 1; anti-NK3 (1/100) and Substance P (1 µM)", "setting": "[4]", "value": 0, "unit": "%"},
      {"measurement": "% of fibroblast cells with expression for TGF-beta 2; anti-NK3 (1/100) and Substance P (1 µM)", "setting": "[4]", "value": 0, "unit": "%"},
      {"measurement": "% of fibroblast cells with expression for TGF-beta 3; anti-NK3 (1/100) and Substance P (1 µM)", "setting": "[4]", "value": 0, "unit": "%"},
      {"measurement": "% of mononuclear cells with expression for NF-kB; anti-NK3 (1/100) and Substance P (1 µM)", "setting": "[4]", "value": 0, "unit": "%"},
      {"measurement": "% of mononuclear cells with expression for TGF-beta; anti-NK3 (1/100) and Substance P (1 µM)", "setting": "[4]", "value": 0, "unit": "%"},
      {"measurement": "% of polymorphonuclear cells with expression for NF-kB; anti-NK3 (1/100)", "setting": "[4]", "value": 0, "unit": "%"},
      {"measurement": "% of polymorphonuclear cells with expression for TGF-beta; anti-NK3 (1/100)", "setting": "[4]", "value": 0, "unit": "%"}
    ]},
    {"molecule": "RPKPQQFFGLM (peptide, UniProt P20366 58-68, looked up)", "note": "[Substance P (product no. S6883; Sigma-Aldrich)]", "values": [
      {"measurement": "% of fibroblast cells with expression for MMP-3; Substance P (1 µM)", "setting": "[5]", "value": 33.9, "unit": "%"},
      {"measurement": "% of fibroblast cells with expression for MMP-7; Substance P (1 µM)", "setting": "[5]", "value": 46.2, "unit": "%"},
      {"measurement": "% of fibroblast cells with expression for MMP-9; Substance P (1 µM)", "setting": "[5]", "value": 35.5, "unit": "%"},
      {"measurement": "% of fibroblast cells with expression for MMP-11; Substance P (1 µM)", "setting": "[5]", "value": 7.8, "unit": "%"},
      {"measurement": "% of fibroblast cells with expression for MMP-13; Substance P (1 µM)", "setting": "[5]", "value": 17.1, "unit": "%"},
      {"measurement": "% of fibroblast cells with expression for MMP-14; Substance P (1 µM)", "setting": "[5]", "value": 47.3, "unit": "%"},
      {"measurement": "% of fibroblast cells with expression for SPARC; Substance P (1 µM)", "setting": "[5]", "value": 16, "unit": "%"},
      {"measurement": "% of fibroblast cells with expression for TGF-alpha; Substance P (1 µM)", "setting": "[5]", "value": 16.5, "unit": "%"},
      {"measurement": "% of fibroblast cells with expression for TGF-beta 1; Substance P (1 µM)", "setting": "[5]", "value": 18.4, "unit": "%"},
      {"measurement": "% of fibroblast cells with expression for TGF-beta 2; Substance P (1 µM)", "setting": "[5]", "value": 24.6, "unit": "%"},
      {"measurement": "% of fibroblast cells with expression for TGF-beta 3; Substance P (1 µM)", "setting": "[5]", "value": 23.1, "unit": "%"},
      {"measurement": "% of mononuclear cells with expression for NF-kB; Substance P (1 µM)", "setting": "[5]", "value": 25.7, "unit": "%"},
      {"measurement": "% of mononuclear cells with expression for TGF-beta; Substance P (1 µM)", "setting": "[5]", "value": 16.4, "unit": "%"},
      {"measurement": "% of polymorphonuclear cells with expression for NF-kB; Substance P (1 µM)", "setting": "[5]", "value": 17.5, "unit": "%"},
      {"measurement": "% of polymorphonuclear cells with expression for TGF-beta; Substance P (1 µM)", "setting": "[5]", "value": 36.8, "unit": "%"}
    ]}
  ]
}
